Experimental data published in US8293494 (UNIVERSITATSKLINIKUM FREIBURG, dated 2012).

T1: GFP-JHDM2A (UniProt Q9Y4C1 1-1321)
T1 construct: not shown: GFP fusion partner
T1 sequence (looked up): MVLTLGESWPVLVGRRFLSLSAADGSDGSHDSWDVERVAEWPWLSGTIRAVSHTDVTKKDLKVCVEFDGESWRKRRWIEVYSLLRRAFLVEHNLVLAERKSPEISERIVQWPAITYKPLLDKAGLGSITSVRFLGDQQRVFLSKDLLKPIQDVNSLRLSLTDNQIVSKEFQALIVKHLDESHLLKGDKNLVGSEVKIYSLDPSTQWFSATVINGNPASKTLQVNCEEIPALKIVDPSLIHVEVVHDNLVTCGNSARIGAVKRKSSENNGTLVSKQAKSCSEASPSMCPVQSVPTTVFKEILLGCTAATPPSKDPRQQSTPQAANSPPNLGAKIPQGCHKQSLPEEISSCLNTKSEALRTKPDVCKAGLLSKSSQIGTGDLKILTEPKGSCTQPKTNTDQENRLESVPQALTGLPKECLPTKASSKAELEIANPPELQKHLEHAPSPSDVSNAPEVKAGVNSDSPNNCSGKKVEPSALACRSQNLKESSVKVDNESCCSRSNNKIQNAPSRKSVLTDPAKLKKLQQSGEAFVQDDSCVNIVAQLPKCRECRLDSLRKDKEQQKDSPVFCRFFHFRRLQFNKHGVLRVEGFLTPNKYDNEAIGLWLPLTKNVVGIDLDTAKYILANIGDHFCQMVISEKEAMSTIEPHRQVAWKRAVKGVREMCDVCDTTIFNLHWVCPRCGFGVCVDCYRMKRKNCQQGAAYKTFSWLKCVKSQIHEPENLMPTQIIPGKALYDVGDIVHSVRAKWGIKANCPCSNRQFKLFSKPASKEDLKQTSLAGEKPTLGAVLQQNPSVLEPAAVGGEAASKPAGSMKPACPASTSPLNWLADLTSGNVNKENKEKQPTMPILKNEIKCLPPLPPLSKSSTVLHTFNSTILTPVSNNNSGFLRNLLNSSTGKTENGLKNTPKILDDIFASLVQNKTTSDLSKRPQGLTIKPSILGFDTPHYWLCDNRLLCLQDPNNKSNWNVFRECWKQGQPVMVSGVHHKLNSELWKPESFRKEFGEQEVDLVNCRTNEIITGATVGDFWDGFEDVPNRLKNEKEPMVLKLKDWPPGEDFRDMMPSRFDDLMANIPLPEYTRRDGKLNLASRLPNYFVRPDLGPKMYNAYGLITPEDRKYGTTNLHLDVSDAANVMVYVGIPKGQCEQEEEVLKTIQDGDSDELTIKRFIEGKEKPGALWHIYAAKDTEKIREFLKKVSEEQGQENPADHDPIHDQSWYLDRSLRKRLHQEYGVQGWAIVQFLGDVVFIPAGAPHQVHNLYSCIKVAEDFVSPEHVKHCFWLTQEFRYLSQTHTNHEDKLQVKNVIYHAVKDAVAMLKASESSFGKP


Experiments:
[1] = molecular target: TAP-LSD1 (UniProt O60341 1-852); test: TAP-LSD1 complexes immobilised on IgG sepharose, Western blot
Source text: Protein complexes were immobilised on IgG, sepharose, released from IgG sepharose by TEV protease cleavage of the TAP tag, followed by immunoprecipitation of Flag-tagged AR with α-Flag antibody. […] Ten percent of the extract used for immunoprecipitation was loaded as input.
LSD1 associated complexes were released from IgG sepharose by TEV protease cleavage of the TAP-tag followed by immunoprecipitation of Flag-tagged AR with α-Flag antibody. […] We applied the TAP-based co-purification strategy because the moderate expression levels of the endogenous proteins would only have allowed a limited number of purification steps.

[2] = molecular target: LSD1 (endogenous, LNCaP cells) (human, UniProt O60341 1-852); test: Re-ChIP in LNCaP cells
Experimental: LNCaP cells were incubated with or without the AR agonist R1881 (a, b), and transfected with stealth RNAi (b). ChIP or Re-ChIP was performed with the indicated antibodies. The precipitated chromatin was amplified by PCR using primers flanking the promoter region (ARE I+II) and the enhancer region (ARE III) of the PSA gene, the promoter region (ARE) of the KLK2 gene, or the promoters of the unrelated GAPDH and U6 genes. […] Western blots were decorated with the indicated antibodies against α-mono-, α-di-, or α-trimethyl H3K9.
ChIP experiments were performed as described[3]. LNCaP cells were treated for 45 min (FIG. 2a) or 210 min in the presence or absence of 10^-8 M R1881 as indicated. LNCaP cells were transfected three days before harvesting for ChIP with or without stealth RNAi (Invitrogen) following the manufacturer's instructions. […] For PCR, 1-5 µl out of 50 d DNA extract was used. For Re-ChIP assays, immunoprecipitations were sequentially washed with TSE I, TSE II, buffer III, and TE[20]. Complexes were eluted by incubation with 10 mM DTT at 37° C. for 30 minutes, diluted 50 times with dilution buffer[20] followed by a second immunoprecipitation with the indicated antibodies.

[3] = molecular target: T1, GFP-JHDM2A; test: co-immunoprecipitation with α-Flag from transfected 293 cells, Western blot with α-GFP
Source text: Extracts were immunoprecipitated with α-Flag antibody. Twenty percent of the extract used for immunoprecipitation was loaded as input. Western blots were decorated with α-GFP (Santa Cruz; 1:500) or α-Flag antibody (1:2500).

binding result [1]	Binder	other results
binds	Flag-AR (receptor, Plasmid described previously; Assays in the presence of R1881; also called Flag-tagged AR; not shown: Flag tag) MEVQLGLGRVYPRPPSKTYRGAFQNLFQSVREVIQNPGPRHPEAASAAPPGASLLLLQQQQQQQQQQQQQQQQQQQQQQQETSPRQQQQQQGEDGSPQAHRRGPTGYLVLDEEQQPSQPQSALECHPERGCVPEPGAAVAASKGLPQQLPAPPDEDDSAAPSTLSLLGPTFPGLSSCSADLKDILSEASTMQLLQQQQQEAVSEGSSSGRAREASGAPTSSKDNYLGGTSTISDNAKELCKAVSVSMGLGVEALEHLSPGEQLRGDCMYAPLLGVPPAVRPTPCAPLAECKGSLLDDSAGKSTEDTAEYSPFKGGYTKGLEGESLGCSGSAAAGSSGTLELPSTLSLYKSGALDEAAAYQSRDYYNFPLALAGPPPPPPPPHPHARIKLENPLDYGSAWAAAAAQCRYGDLASLHGAGAAGPGSGSPSAAASSSWHTLFTAEEGQLYGPCGGGGGGGGGGGGGGGGGGGGGGGEAGAVAPYGYTRPPQGLAGQESDFTAPDVWYPGGMVSRVPYPSPTCVKSEMGPWMDSYSGPYGDMRLETARDHVLPIDYYFPPQKTCLICGDEASGCHYGALTCGSCKVFFKRAAEGKQKYLCASRNDCTIDKFRRKNCPSCRLRKCYEAGMTLGARKLKKLGNLKLQEEGEASSTTSPTEETTQKLTVSHIEGYECQPIFLNVLEAIEPGVVCAGHDNNQPDSFAALLSSLNELGERQLVHVVKWAKALPGFRNLHVDDQMAVIQYSWMGLMVFAMGWRSFTNVNSRMLYFAPDLVFNEYRMHKSRMYSQCVRMRHLSQEFGWLQITPQEFLCMKALLLFSIIPVDGLKNQKFFDELRMNYIKELDRIIACKRKNPTSCSRRFYQLTKLLDSVQPIARELHQFTFDLLIKSHMVSVDFPEMMAEIISVQVPKILSGKVKPIYFHTQ	
binds	V5-JMJD2C (enzyme, also called CMX-DEST51-JMJD2C; not shown: V5 tag) MEVAEVESPLNPSCKIMTFRPSMEEFREFNKYLAYMESKGAHRAGLAKVIPPKEWKPRQCYDDIDNLLIPAPIQQMVTGQSGLFTQYNIQKKAMTVKEFRQLANSGKYCTPRYLDYEDLERKYWKNLTFVAPIYGADINGSIYDEGVDEWNIARLNTVLDVVEEECGISIEGVNTPYLYFGMWKTTFAWHTEDMDLYSINYLHFGEPKSWYAIPPEHGKRLERLAQGFFPSSSQGCDAFLRHKMTLISPSVLKKYGIPFDKITQEAGEFMITFPYGYHAGFNHGFNCAESTNFATVRWIDYGKVAKLCTCRKDMVKISMDIFVRKFQPDRYQLWKQGKDIYTIDHTKPTPASTPEVKAWLQRRRKVRKASRSFQCARSTSKRPKADEEEEVSDEVDGAEVPNPDSVTDDLKVSEKSEAAVKLRNTEASSEEESSASRMQVEQNLSDHIKLSGNSCLSTSVTEDIKTEDDKAYAYRSVPSISSEADDSIPLSSGYEKPEKSDPSELSWPKSPESCSSVAESNGVLTEGEESDVESHGNGLEPGEIPAVPSGERNSFKVPSIAEGENKTSKSWRHPLSRPPARSPMTLVKQQAPSDEELPEVLSIEEEVEETESWAKPLIHLWQTKSPNFAAEQEYNATVARMKPHCAICTLLMPYHKPDSSNEENDARWETKLDEVVTSEGKTKPLIPEMCFIYSEENIEYSPPNAFLEEDGTSLLISCAKCCVRVHASCYGIPSHEICDGWLCARCKRNAWTAECCLCNLRGGALKQTKNNKWAHVMCAVAVPEVRFTNVPERTQIDVGRIPLQRLKLKCIFCRHRVKRVSGACIQCSYGRCPASFHVTCAHAAGVLMEPDDWPYVVNITCFRHKVNPNVKSKACEKVISVGQTVITKHRNTRYYSCRVMAVTSQTFYEVMFDDGSFSRDTFPEDIVSRDCLKLGPPAEGEVVQVKWPDGKLYGAKYFGSNIAHMYQVEFEDGSQIAMKREDIYTLDEELPKRVKARFSTASDMRFEDTFYGADIIQGERKRQRVLSSRFKNEYVADPVYRTFLKSSFQKKCQKRQ	
	JMJD2C (endogenous, LNCaP cells) (enzyme, Endogenous protein, on chromatin (ChIP / Re-ChIP)) MEVAEVESPLNPSCKIMTFRPSMEEFREFNKYLAYMESKGAHRAGLAKVIPPKEWKPRQCYDDIDNLLIPAPIQQMVTGQSGLFTQYNIQKKAMTVKEFRQLANSGKYCTPRYLDYEDLERKYWKNLTFVAPIYGADINGSIYDEGVDEWNIARLNTVLDVVEEECGISIEGVNTPYLYFGMWKTTFAWHTEDMDLYSINYLHFGEPKSWYAIPPEHGKRLERLAQGFFPSSSQGCDAFLRHKMTLISPSVLKKYGIPFDKITQEAGEFMITFPYGYHAGFNHGFNCAESTNFATVRWIDYGKVAKLCTCRKDMVKISMDIFVRKFQPDRYQLWKQGKDIYTIDHTKPTPASTPEVKAWLQRRRKVRKASRSFQCARSTSKRPKADEEEEVSDEVDGAEVPNPDSVTDDLKVSEKSEAAVKLRNTEASSEEESSASRMQVEQNLSDHIKLSGNSCLSTSVTEDIKTEDDKAYAYRSVPSISSEADDSIPLSSGYEKPEKSDPSELSWPKSPESCSSVAESNGVLTEGEESDVESHGNGLEPGEIPAVPSGERNSFKVPSIAEGENKTSKSWRHPLSRPPARSPMTLVKQQAPSDEELPEVLSIEEEVEETESWAKPLIHLWQTKSPNFAAEQEYNATVARMKPHCAICTLLMPYHKPDSSNEENDARWETKLDEVVTSEGKTKPLIPEMCFIYSEENIEYSPPNAFLEEDGTSLLISCAKCCVRVHASCYGIPSHEICDGWLCARCKRNAWTAECCLCNLRGGALKQTKNNKWAHVMCAVAVPEVRFTNVPERTQIDVGRIPLQRLKLKCIFCRHRVKRVSGACIQCSYGRCPASFHVTCAHAAGVLMEPDDWPYVVNITCFRHKVNPNVKSKACEKVISVGQTVITKHRNTRYYSCRVMAVTSQTFYEVMFDDGSFSRDTFPEDIVSRDCLKLGPPAEGEVVQVKWPDGKLYGAKYFGSNIAHMYQVEFEDGSQIAMKREDIYTLDEELPKRVKARFSTASDMRFEDTFYGADIIQGERKRQRVLSSRFKNEYVADPVYRTFLKSSFQKKCQKRQ	binding result [2]: binds
	Flag-JMJD2C (enzyme, human, UniProt Q9H3R0 1-1056, looked up, also called CMX-Flag-JMJD2C; not shown: Flag tag) MEVAEVESPLNPSCKIMTFRPSMEEFREFNKYLAYMESKGAHRAGLAKVIPPKEWKPRQCYDDIDNLLIPAPIQQMVTGQSGLFTQYNIQKKAMTVKEFRQLANSGKYCTPRYLDYEDLERKYWKNLTFVAPIYGADINGSIYDEGVDEWNIARLNTVLDVVEEECGISIEGVNTPYLYFGMWKTTFAWHTEDMDLYSINYLHFGEPKSWYAIPPEHGKRLERLAQGFFPSSSQGCDAFLRHKMTLISPSVLKKYGIPFDKITQEAGEFMITFPYGYHAGFNHGFNCAESTNFATVRWIDYGKVAKLCTCRKDMVKISMDIFVRKFQPDRYQLWKQGKDIYTIDHTKPTPASTPEVKAWLQRRRKVRKASRSFQCARSTSKRPKADEEEEVSDEVDGAEVPNPDSVTDDLKVSEKSEAAVKLRNTEASSEEESSASRMQVEQNLSDHIKLSGNSCLSTSVTEDIKTEDDKAYAYRSVPSISSEADDSIPLSSGYEKPEKSDPSELSWPKSPESCSSVAESNGVLTEGEESDVESHGNGLEPGEIPAVPSGERNSFKVPSIAEGENKTSKSWRHPLSRPPARSPMTLVKQQAPSDEELPEVLSIEEEVEETESWAKPLIHLWQTKSPNFAAEQEYNATVARMKPHCAICTLLMPYHKPDSSNEENDARWETKLDEVVTSEGKTKPLIPEMCFIYSEENIEYSPPNAFLEEDGTSLLISCAKCCVRVHASCYGIPSHEICDGWLCARCKRNAWTAECCLCNLRGGALKQTKNNKWAHVMCAVAVPEVRFTNVPERTQIDVGRIPLQRLKLKCIFCRHRVKRVSGACIQCSYGRCPASFHVTCAHAAGVLMEPDDWPYVVNITCFRHKVNPNVKSKACEKVISVGQTVITKHRNTRYYSCRVMAVTSQTFYEVMFDDGSFSRDTFPEDIVSRDCLKLGPPAEGEVVQVKWPDGKLYGAKYFGSNIAHMYQVEFEDGSQIAMKREDIYTLDEELPKRVKARFSTASDMRFEDTFYGADIIQGERKRQRVLSSRFKNEYVADPVYRTFLKSSFQKKCQKRQ	binding result [3]: no binding
